Here are results for 1 molecule from patent US20230295559A1 (PIVOT BIO, published 2023).

The assay deals with T1, glutamine synthetase GlnA (Paenibacillus polymyxa CI41).
T1 chain: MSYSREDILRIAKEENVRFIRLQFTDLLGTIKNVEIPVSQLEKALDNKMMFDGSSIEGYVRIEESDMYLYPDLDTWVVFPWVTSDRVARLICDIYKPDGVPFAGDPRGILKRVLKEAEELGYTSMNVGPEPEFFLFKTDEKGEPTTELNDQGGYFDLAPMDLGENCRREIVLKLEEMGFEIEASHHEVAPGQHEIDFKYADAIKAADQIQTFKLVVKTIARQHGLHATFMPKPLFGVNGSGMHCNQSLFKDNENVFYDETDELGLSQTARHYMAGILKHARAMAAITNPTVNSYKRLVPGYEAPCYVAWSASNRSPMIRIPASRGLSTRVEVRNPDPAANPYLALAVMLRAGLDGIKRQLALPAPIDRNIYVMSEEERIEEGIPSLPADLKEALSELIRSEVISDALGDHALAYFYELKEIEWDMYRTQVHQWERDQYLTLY
Description: cell-based or functional assay.

B1: GlnR with C-terminal deletion (Δ113-137) (other)
chain: MGDEIRRNMALFPIGIVMKLTDLSARQIRYYEQHNLIVPARTSGNQRLFSFNDVERLLEIKALIEKGVNIAGIKQVMNPVTKESEEATVITADTEVKRREMSDTQLHRLLKQ
Take B1: the “overall nitrogenase activity (acetylene reduction assay)” value worked out at 5 fold.
